Reference: paper PMC7721913 (The Journal of Cell Biology, 2020)

Assays:
[1] = test system: mitochondria in axons of DRG neurons; assay: Mitochondrial transport assay; type: cell-based, rat; details: vs control; ∼115 mitochondria, 10 axons, three experiments
HA-SFPQ = assay: Coimmunoprecipitation of HA-SFPQ with KLC1/KIF5A constructs in HEK 293T cells; details: KIF5A^R280H vs WT KIF5A, n = 7, P = 0.0019
[2] = test system: bclw and β actin mRNA in DRG neurons; assay: Quantitative RT-PCR of mRNA in cell bodies and distal axons; type: cell-based, rat; details: vs WT control; normalized to gapdh; 3 independent experiments

B1: KIF5A^R280H: KIF5A mutant associated with CMT2 (protein)
chain: MAETNNECSIKVLCRFRPLNQAEILRGDKFIPIFQGDDSVIIGGKPYVFDRVFPPNTTQEQVYHACAMQIVKDVLAGYNGTIFAYGQTSSGKTHTMEGKLHDPQLMGIIPRIARDIFNHIYSMDENLEFHIKVSYFEIYLDKIRDLLDVTKTNLSVHEDKNRVPFVKGCTERFVSSPEEILDVIDEGKSNRHVAVTNMNEHSSRSHSIFLINIKQENVETEQKLSGKLYLVDLAGSEKVSKTGAEGAVLDEAKNINKSLSALGNVISALAEGTKSYVPYHDSKMTRILQDSLGGNCRTTMFICCSPSSYNDAETKSTLMFGQRAKTIKNTASVNLELTAEQWKKKYEKEKEKTKAQKETIAKLEAELSRWRNGENVPETERLAGEDSALGAELCEETPVNDNSSIVVRIAPEERQKYEEEIRRLYKQLDDKDDEINQQSQLIEKLKQQMLDQEELLVSTRGDNEKVQRELSHLQSENDAAKDEVKEVLQALEELAVNYDQKSQEVEEKSQQNQLLVDELSQKVATMLSLESELQRLQEVSGHQRKRIAEVLNGLMRDLSEFSVIVGNGEIKLPVEISGAIEEEFTVARLYISKIKSEVKSVVKRCRQLENLQVECHRKMEVTGRELSSCQLLISQHEAKIRSLTEYMQTVELKKRHLEESYDSLSDELARLQAHETVHEVALKDKEPDTQDAEEVKKALELQMENHREAHHRQLARLRDEINEKQKTIDELKDLNQKLQLELEKLQADYERLKNEENEKSAKLQELTFLYERHEQSKQDLKGLEETVARELQTLHNLRKLFVQDVTTRVKKSAEMEPEDSGGIHSQKQKISFLENNLEQLTKVHKQLVRDNADLRCELPKLEKRLRATAERVKALEGALKEAKEGAMKDKRRYQQEVDRIKEAVRYKSSGKRGHSAQIAKPVRPGHYPASSPTNPYGTRSPECISYTNNLFQNYQNLHLQAAPSSTSDMYFASSGATSVAPLASYQKANMDNGNATDINDNRSDLPCGYEAEDQAKLFPLHQETAAS
modifications: left off: FLAG, N-terminal, kept
[1]
  mitochondria transport (in words): did not alter mitochondria transport
HA-SFPQ
  reduction in binding to SFPQ: ~50%
[2]
  axonal bclw mRNA level (in words): significantly decreased
  axonal β actin mRNA level (in words): not affected
